Measured values reported in patent publication US20250332297A1, “DLL3-SPECIFIC BINDING CONSTRUCTS AND THEIR USE IN RADIOTHERAPY” (MOLECULAR PARTNERS AG, priority 2024, published 2025).

T1: Human DLL3-ECD (Homo sapiens, UniProt Q9NYJ7)
T1 construct: the extracellular domain of DLL3 (DLL3-ECD) from human, cynomolgus monkey, mouse and pig
T1 sequence (Q9NYJ7 27-492 limits assumed): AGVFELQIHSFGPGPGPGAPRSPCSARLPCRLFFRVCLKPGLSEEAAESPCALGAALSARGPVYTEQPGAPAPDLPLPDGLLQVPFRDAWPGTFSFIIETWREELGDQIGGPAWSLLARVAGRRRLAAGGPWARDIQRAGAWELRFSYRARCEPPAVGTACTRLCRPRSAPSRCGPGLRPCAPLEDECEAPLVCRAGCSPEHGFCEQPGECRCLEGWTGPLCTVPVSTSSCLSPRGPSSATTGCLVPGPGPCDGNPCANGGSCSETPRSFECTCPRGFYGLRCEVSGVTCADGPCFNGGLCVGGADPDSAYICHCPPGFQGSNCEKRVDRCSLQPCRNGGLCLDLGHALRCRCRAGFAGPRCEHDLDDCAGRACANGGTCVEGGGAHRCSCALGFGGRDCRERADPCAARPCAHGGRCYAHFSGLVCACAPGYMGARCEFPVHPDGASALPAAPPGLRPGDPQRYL

T2: mouse DLL3-ECD (Mus musculus, UniProt O88516)
T2 construct: the extracellular domain of DLL3 (DLL3-ECD) from human, cynomolgus monkey, mouse and pig
T2 sequence (O88516 33-490 limits assumed): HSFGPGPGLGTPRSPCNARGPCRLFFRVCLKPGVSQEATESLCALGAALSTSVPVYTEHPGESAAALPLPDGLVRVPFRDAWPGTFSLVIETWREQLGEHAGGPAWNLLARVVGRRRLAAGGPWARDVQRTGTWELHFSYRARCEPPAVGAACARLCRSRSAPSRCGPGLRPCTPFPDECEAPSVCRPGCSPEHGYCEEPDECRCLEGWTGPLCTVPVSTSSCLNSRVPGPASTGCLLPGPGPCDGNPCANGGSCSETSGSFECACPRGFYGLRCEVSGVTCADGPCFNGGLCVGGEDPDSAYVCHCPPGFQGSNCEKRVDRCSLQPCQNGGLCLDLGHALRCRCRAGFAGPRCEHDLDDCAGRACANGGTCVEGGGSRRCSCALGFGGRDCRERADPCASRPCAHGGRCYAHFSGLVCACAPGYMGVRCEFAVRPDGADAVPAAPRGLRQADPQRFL

T3: Human DLL3-ECD (recombinant extracellular domain of human DLL3, Examples 11, 17 and 19) (human, UniProt Q9NYJ7 27-466, biotinylated at the Avi-tag where immobilised (Examples 11 and 19))
T3 construct: also called hDLL3-ECD; human ECD; not shown: Avi-tag and Fc knob into hole (order depends on the format)
T3 sequence: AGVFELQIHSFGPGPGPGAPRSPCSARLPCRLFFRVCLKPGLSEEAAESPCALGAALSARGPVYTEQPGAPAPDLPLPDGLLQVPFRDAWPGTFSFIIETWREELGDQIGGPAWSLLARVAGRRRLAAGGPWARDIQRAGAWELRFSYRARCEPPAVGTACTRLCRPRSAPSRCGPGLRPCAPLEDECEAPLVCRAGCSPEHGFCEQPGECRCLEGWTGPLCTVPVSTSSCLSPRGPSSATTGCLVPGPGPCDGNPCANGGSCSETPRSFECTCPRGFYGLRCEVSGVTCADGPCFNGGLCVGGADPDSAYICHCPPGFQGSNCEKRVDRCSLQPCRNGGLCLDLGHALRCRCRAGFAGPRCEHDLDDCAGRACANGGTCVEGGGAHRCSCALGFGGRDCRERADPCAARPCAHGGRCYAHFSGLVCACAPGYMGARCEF

T4: Cyno DLL3-ECD (extracellular domain of cynomolgus macaque DLL3, residues 27 to 466, Avi-tag, 3C site, Fc knob … (cynomolgus macaque, UniProt A0A2K5WSR1 27-464, biotinylated at the Avi-tag (Example 11)))
T4 construct: range 27-466; also called cyno ECD; cynomolgus monkey DLL3; not shown: Avi-tag, 3C protease recognition site and Fc knob into hole
T4 sequence: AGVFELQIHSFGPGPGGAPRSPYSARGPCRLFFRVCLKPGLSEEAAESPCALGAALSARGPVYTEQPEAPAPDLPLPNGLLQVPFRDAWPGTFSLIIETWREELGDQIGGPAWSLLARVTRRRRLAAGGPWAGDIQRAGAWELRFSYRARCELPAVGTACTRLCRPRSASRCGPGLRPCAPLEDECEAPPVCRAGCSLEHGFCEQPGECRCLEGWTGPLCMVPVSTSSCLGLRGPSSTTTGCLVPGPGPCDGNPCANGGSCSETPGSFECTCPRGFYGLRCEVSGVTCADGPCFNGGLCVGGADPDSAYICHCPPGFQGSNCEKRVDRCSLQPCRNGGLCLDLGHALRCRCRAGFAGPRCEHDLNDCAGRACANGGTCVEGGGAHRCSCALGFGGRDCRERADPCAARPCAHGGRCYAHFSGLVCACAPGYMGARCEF

T5: mouse DLL3-ECD (recombinant extracellular domain of mouse DLL3) (mouse, UniProt O88516 33-490)
T5 construct: extracellular domain
T5 sequence (looked up): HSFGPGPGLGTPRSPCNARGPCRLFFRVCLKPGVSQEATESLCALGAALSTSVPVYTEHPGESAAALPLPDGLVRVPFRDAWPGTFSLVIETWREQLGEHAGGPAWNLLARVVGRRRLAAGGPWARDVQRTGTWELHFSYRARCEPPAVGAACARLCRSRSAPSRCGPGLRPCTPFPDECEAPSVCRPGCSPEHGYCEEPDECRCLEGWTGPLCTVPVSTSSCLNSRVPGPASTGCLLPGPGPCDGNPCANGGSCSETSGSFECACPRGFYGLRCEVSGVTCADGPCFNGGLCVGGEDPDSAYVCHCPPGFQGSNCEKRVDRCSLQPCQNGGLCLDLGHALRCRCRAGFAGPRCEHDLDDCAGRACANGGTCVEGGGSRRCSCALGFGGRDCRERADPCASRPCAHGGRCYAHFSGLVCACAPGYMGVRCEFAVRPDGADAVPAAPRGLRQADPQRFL


Key:
[1] = target: pig DLL3-ECD; test: SPR, immobilized DARPin, binding of pig DLL3-ECD (Example 17); conditions: immobilized biotinylated DARPin, DLL3-ECD as analyte, 1:1 Langmuir, Table 20
Protocol: (§1) Kinetic binding parameters and binding affinities of two domain (2D) ankyrin repeat protein MAM279 and single domain (1 D) ankyrin repeat protein MAM093 to DLL3 from different species were determined. The DLL3-specific ankyrin repeat domain of MAM093 is identical to the DLL3-specific ankyrin repeat domain comprised in MAM279.
(§2) SPR multi-trace analyses were performed similarly as described in Examples 1 and 11. Here, the binding kinetics of immobilized DARPin proteins to the extracellular domain of DLL3 (DLL3-ECD) from human, cynomolgus monkey, mouse and pig were determined. Various concentrations of recombinant DLL3-ECD starting from 500 nM were applied to immobilized biotinylated 2D DARPin (MAM279; SEQ ID NO: 11) or 1 D DARPin (MAM093; SEQ ID NO: 1) (both with a Glycine-Serine (GS) at the N-terminal end) for on-rate and off-rate measurements.
(§3) Streptavidin SAHC200M (Xantec) SPR chip was conditioned according to the manufacturer's protocol. Biotinylated DARPins were immobilized to a coating density of 27 resonance units (RU) for 1D DARPin and 25 RU for 2D DARPin. All analytes (3-fold dilution ranging from 500-6.17 nM) were injected in succession for 240 s and dissociation was recorded for 10800 s using a constant flow of 100 μl/min.

[2] = target: T1, Human DLL3-ECD; test: SPR, immobilized DARPin, binding of human DLL3-ECD (Example 17); conditions: immobilized biotinylated DARPin, DLL3-ECD as analyte, 1:1 Langmuir, Table 19
Protocol: as §1, §2, §3

[3] = target: Cyno DLL3-ECD; test: SPR, immobilized DARPin, binding of cyno DLL3-ECD (Example 17); design: species or system cynomolgus monkey; conditions: immobilized biotinylated DARPin, DLL3-ECD as analyte, 1:1 Langmuir, Table 19
Protocol: as §1, §2, §3

[4] = target: T2, mouse DLL3-ECD; test: SPR, immobilized DARPin, binding of mouse DLL3-ECD (Example 17); conditions: immobilized biotinylated DARPin, DLL3-ECD as analyte, 1:1 Langmuir, Table 20
Protocol: as §1, §2, §3

[5] = target: pig DLL3-ECD (recombinant extracellular domain of pig DLL3) (pig); test: SPR (ProteOn), biotinylated DARPin on chip, pig DLL3-ECD as analyte, 1:1 Langmuir fit
[6] = target: T3, Human DLL3-ECD (recombinant …); test: SPR (ProteOn), biotinylated DARPin on chip, human DLL3-ECD as analyte, 1:1 Langmuir fit
Protocol: (§4) SPR multi-trace analyses were performed similarly as described in Examples 1 and 11. Here, the binding kinetics of immobilized DARPin proteins to the extracellular domain of DLL3 (DLL3-ECD) from human, cynomolgus monkey, mouse and pig were determined.
(§5) Streptavidin SAHC200M (Xantec) SPR chip was conditioned according to the manufacturer's protocol.

[7] = target: T4, Cyno DLL3-ECD (extracellular domain of …); test: SPR (ProteOn), biotinylated DARPin on chip, cyno DLL3-ECD as analyte, 1:1 Langmuir fit
Protocol: as §4, §5

[8] = target: T5, mouse DLL3-ECD (recombinant …); test: SPR (ProteOn), biotinylated DARPin on chip, mouse DLL3-ECD as analyte, 1:1 Langmuir fit
Protocol: as §4, §5

Row | Molecule | Kd [5] | koff [5] | kon [5] | Kd [6] | koff [6] | kon [6] | Kd [7] | koff [7] | kon [7] | Kd [8] | koff [8] | kon [8] | other results
1 | MAM093: Ankyrin repeat domain specific for DLL3 (SEQ ID NO: 1); single domain (1D) DARPin (protein, Ankyrin repeat domain specific for DLL3 (MAM093), single domain (1D) DARPin) DLGKKLLAAAAQGQDDEVRELLKAGANVNAKDLFGYTPLHLAAWRGHLEIVEVLLKAGADVNAKDAAGETPLHLAAWFGHLEIVEVLLKAGADVNAQDLQGKTPADLAAKEGHEDIAEVLQKAA | – | – | – | – | – | – | – | – | – | – | – | – | Kd [1]: 14.3 nM; Koff pig DLL3-ECD [1]: 0.00033 s⁻¹; Kon pig DLL3-ECD [1]: 23100 M⁻¹ s⁻¹; Kd [2]: 0.13 nM; Koff Human DLL3-ECD [2]: 1.18e-05 s⁻¹; Kon Human DLL3-ECD [2]: 90700 M⁻¹ s⁻¹; Kd [3]: 8.72 nM; Koff Cyno DLL3-ECD [3]: 0.000825 s⁻¹; Kon Cyno DLL3-ECD [3]: 94700 M⁻¹ s⁻¹; Kd [4]: 149 nM; Koff mouse DLL3-ECD [4]: 0.004 s⁻¹; Kon mouse DLL3-ECD [4]: 26700 M⁻¹ s⁻¹
2 | Biotinylated 2D DARPin MAM279 (SEQ ID NO: 11) with a Glycine-Serine (GS) at the N-terminal end (designed binder, biotinylated (site and any tag used not stated), also called Biotinylated DARPin MAM279) GSDLGKKLLEAARAGQDDEVRELLKAGADVNAKDYFSHTPLHLAARNGHLKIVEVLLKAGADVNAKDFAGKTPLHLAADAGHLEIVEVLLKAGADVNAQDIFGKTPADIAADAGHEDIAEVLQKAAGSPTPTPTTPTPTPTTPTPTPTGSDLGKKLLAAAAQGQDDEVRELLKAGANVNAKDLFGYTPLHLAAWRGHLEIVEVLLKAGADVNAKDAAGETPLHLAAWFGHLEIVEVLLKAGADVNAQDLQGKTPADLAAKEGHEDIAEVLQKAA | 17.3 nM | 0.000319 s⁻¹ | 18400 M⁻¹ s⁻¹ | 0.127 nM | 1.31e-05 s⁻¹ | 102000 M⁻¹ s⁻¹ | 8.88 nM | 0.000939 s⁻¹ | 106000 M⁻¹ s⁻¹ | 83.9 nM | 0.00282 s⁻¹ | 33700 M⁻¹ s⁻¹ | –
3 | Biotinylated 1D DARPin MAM093 (SEQ ID NO: 1) with a Glycine-Serine (GS) at the N-terminal end (designed binder, biotinylated (site and any tag used not stated), also called Biotinylated DARPin MAM093) GSDLGKKLLAAAAQGQDDEVRELLKAGANVNAKDLFGYTPLHLAAWRGHLEIVEVLLKAGADVNAKDAAGETPLHLAAWFGHLEIVEVLLKAGADVNAQDLQGKTPADLAAKEGHEDIAEVLQKAA | 14.3 nM | 0.00033 s⁻¹ | 23100 M⁻¹ s⁻¹ | 0.13 nM | 1.18e-05 s⁻¹ | 90700 M⁻¹ s⁻¹ | 8.72 nM | 0.000825 s⁻¹ | 94700 M⁻¹ s⁻¹ | 149 nM | 0.004 s⁻¹ | 26700 M⁻¹ s⁻¹ | –
